Measured values taken from publication PMC8669397.
One block for each substance: values may come before it.

What was measured:
[1] = target: E. coli MukB(G67C)-HaloTag (E. coli) (UniProt P22523); assay: cross-linking; in vivo BMOE combinatorial cysteine cross-linking, cells grown to stationary phase; SDS-PAGE and in-gel fluorescence of MukB-HaloTag-TMR
[2] = target: E. coli MukB(G67C)-HaloTag (E. coli) (UniProt P22523); assay: cross-linking; in vivo BMOE cysteine cross-linking of E. coli cells in exponential phase, 10 min on ice in PBS; SDS-PAGE and in-gel fluorescence of MukB-HaloTag-TMR
[3] = target: E. coli MukB(G67C, R771C)-HaloTag with natural C730 (E. coli) (UniProt P22523); assay: cross-linking; in vivo BMOE combinatorial cysteine cross-linking, cells grown to stationary phase; SDS-PAGE and in-gel fluorescence of MukB-HaloTag-TMR
[4] = target: E. coli MukB(R771C)-HaloTag with natural C730 (E. coli) (UniProt P22523); assay: as above
[5] = target: E. coli MukB(G67C, D1406A)-HaloTag (E. coli) (UniProt P22523); assay: cross-linking; in vivo BMOE cysteine cross-linking of E. coli cells in exponential phase, 10 min on ice in PBS; SDS-PAGE and in-gel fluorescence of MukB-HaloTag-TMR
[6] = target: E. coli MukB(G67C, E1407Q)-HaloTag (E. coli) (UniProt P22523); assay: as above

MukB species cross-linked at the heads [1]: 29%
cross-linked fraction [2]: 22%
Substance: E. coli MukB(G67C)-HaloTag (from UniProt P22523 1-1486) (natural protein)

MukB species cross-linked at the heads [3]: 12%
Substance: E. coli MukB(G67C, R771C)-HaloTag with natural C730 (from UniProt P22523 1-1486) (natural protein)

cross-linking efficiency [4]: 62%
Substance: E. coli MukB(R771C)-HaloTag with natural C730 (from UniProt P22523 1-1486) (natural protein)

cross-linked fraction [5]: 21%
Substance: E. coli MukB(G67C, D1406A)-HaloTag (from UniProt P22523 1-1486) (natural protein)

cross-linked fraction [6]: 30%
Substance: E. coli MukB(G67C, E1407Q)-HaloTag (from UniProt P22523 1-1486) (natural protein)
